Data as given in paper PMC9482650, “Quantitative fragmentomics allow affinity mapping of interactomes” (Nature Communications, 2022).

T1: LIN7A, O14910
T1 sequence (O14910 103-200, limits assumed, looked up): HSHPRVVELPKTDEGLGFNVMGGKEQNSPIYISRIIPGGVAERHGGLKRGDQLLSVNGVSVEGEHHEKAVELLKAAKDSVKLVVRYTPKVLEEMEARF

T2: LNX2_2, Q8N448
T2 sequence (Q8N448 334-432, limits assumed, looked up): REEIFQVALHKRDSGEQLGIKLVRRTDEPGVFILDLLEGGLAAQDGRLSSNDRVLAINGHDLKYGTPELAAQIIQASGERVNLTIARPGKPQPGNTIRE

T3: NHERF3_4, Q5T2W1
T3 sequence (Q5T2W1 373-468, limits assumed, looked up): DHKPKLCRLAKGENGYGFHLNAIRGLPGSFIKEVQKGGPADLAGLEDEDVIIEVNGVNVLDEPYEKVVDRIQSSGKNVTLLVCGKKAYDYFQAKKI

T4: HTRA4, P83105
T4 sequence (P83105 378-476, limits assumed, looked up): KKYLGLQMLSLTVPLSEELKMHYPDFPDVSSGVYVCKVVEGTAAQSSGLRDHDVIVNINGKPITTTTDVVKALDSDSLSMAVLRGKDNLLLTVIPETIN

T5: TX1BP3, O14907
T5 sequence (O14907 10-122, limits assumed, looked up): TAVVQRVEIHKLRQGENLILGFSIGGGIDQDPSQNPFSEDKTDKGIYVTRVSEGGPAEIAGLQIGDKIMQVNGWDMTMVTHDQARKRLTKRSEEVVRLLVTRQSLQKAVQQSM

T6: MPP2, Q14168
T6 sequence (Q14168 180-250, limits assumed, looked up): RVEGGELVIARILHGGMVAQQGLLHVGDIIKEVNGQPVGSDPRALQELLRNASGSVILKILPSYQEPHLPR

T7: GRIP1_7, Q9Y3R0
T7 sequence (Q9Y3R0 999-1096, limits assumed, looked up): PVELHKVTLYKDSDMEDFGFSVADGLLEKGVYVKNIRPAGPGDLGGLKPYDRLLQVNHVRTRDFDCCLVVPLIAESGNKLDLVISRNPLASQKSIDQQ

T8: PCLO, Q9Y6V0
T8 sequence (Q9Y6V0 4491-4600, limits assumed, looked up): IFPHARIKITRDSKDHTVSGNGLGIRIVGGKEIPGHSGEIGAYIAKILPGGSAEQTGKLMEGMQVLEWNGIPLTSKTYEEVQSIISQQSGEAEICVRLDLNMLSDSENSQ

T9: DFNB31_2, Q9P202
T9 sequence (Q9P202 274-371, limits assumed, looked up): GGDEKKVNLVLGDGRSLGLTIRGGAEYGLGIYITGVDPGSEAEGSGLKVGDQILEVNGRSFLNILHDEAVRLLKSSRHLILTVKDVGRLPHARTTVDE

T10: APBA2_2, Q99767
T10 sequence (Q99767 654-744, limits assumed, looked up): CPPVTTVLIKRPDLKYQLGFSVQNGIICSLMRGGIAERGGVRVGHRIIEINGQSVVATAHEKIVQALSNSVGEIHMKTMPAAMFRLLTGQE

T11: MPDZ_10, O75970
T11 sequence (O75970 1624-1722, limits assumed, looked up): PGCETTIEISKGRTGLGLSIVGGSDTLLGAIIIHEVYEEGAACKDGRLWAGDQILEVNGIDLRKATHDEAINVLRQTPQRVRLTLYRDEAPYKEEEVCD

T12: RADIL, Q96JH8
T12 sequence (Q96JH8 971-1071, limits assumed, looked up): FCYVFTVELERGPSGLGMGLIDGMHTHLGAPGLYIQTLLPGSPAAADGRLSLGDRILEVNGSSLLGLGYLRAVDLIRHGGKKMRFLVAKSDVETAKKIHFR


target: MAGI1_1, Q96QZ7; experiment: holdup assay; parameters: key: below the threshold = too weak to quantify, mostly under pKd 3.1 to 4; conditions: plain residues with an end cap or a label only (N-terminal biotin on a linker: ado-ado)
Sequence (Q96QZ7 1-106): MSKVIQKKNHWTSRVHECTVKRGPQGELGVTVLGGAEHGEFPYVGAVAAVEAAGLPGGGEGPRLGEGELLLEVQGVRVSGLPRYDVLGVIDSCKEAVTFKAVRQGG

Row | pKd | Binder
1 | below the threshold | FLVTEFNVML [DFNB31, Q9P202]

target: T1, LIN7A, O14910; experiment: holdup assay; parameters: key: below the threshold = too weak to quantify, mostly under pKd 3.1 to 4; conditions: plain residues with an end cap or a label only (N-terminal biotin on a linker: ado-ado)

Row | pKd | Binder
2 | below the threshold | FLVTEFNVML [DFNB31, Q9P202]

target: T2, LNX2_2, Q8N448; experiment: holdup assay; parameters: key: below the threshold = too weak to quantify, mostly under pKd 3.1 to 4; conditions: plain residues with an end cap or a label only (N-terminal biotin on a linker: ado-ado)

Row | pKd | Binder
3 | below the threshold | FLVTEFNVML [DFNB31, Q9P202]

target: T3, NHERF3_4, Q5T2W1; experiment: holdup assay; parameters: key: below the threshold = too weak to quantify, mostly under pKd 3.1 to 4; conditions: plain residues with an end cap or a label only (N-terminal biotin on a linker: ado-ado)

Row | pKd | Binder
4 | 4.55 | FLVTEFNVML [DFNB31, Q9P202]

target: FRMPD2_2, Q68DX3; experiment: holdup assay; parameters: key: below the threshold = too weak to quantify, mostly under pKd 3.1 to 4; conditions: plain residues with an end cap or a label only (N-terminal biotin on a linker: ado-ado)
Sequence (Q68DX3 944-1038): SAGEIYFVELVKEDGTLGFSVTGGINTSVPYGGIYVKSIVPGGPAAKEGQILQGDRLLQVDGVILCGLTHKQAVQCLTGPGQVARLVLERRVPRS

Row | pKd | Binder
5 | below the threshold | FLVTEFNVML [DFNB31, Q9P202]

target: T4, HTRA4, P83105; experiment: holdup assay; parameters: key: below the threshold = too weak to quantify, mostly under pKd 3.1 to 4; conditions: plain residues with an end cap or a label only (N-terminal biotin on a linker: ado-ado)

Row | pKd | Binder
6 | below the threshold | FLVTEFNVML [DFNB31, Q9P202]

target: T5, TX1BP3, O14907; experiment: holdup assay; parameters: key: below the threshold = too weak to quantify, mostly under pKd 3.1 to 4; conditions: plain residues with an end cap or a label only (N-terminal biotin on a linker: ado-ado)

Row | pKd | Binder
7 | 3.96 | FLVTEFNVML [DFNB31, Q9P202]

target: TJP1_2, Q07157; experiment: holdup assay; parameters: key: below the threshold = too weak to quantify, mostly under pKd 3.1 to 4; conditions: plain residues with an end cap or a label only (N-terminal biotin on a linker: ado-ado)
Sequence (Q07157 181-274): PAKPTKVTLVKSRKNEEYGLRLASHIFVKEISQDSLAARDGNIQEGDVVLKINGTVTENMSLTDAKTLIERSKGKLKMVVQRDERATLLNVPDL

Row | pKd | Binder
8 | below the threshold | FLVTEFNVML [DFNB31, Q9P202]

target: T6, MPP2, Q14168; experiment: holdup assay; parameters: key: below the threshold = too weak to quantify, mostly under pKd 3.1 to 4; conditions: plain residues with an end cap or a label only (N-terminal biotin on a linker: ado-ado)

Row | pKd | Binder
9 | below the threshold | FLVTEFNVML [DFNB31, Q9P202]

target: Inadl_8, Q8NI35; experiment: holdup assay; parameters: key: below the threshold = too weak to quantify, mostly under pKd 3.1 to 4; conditions: plain residues with an end cap or a label only (N-terminal biotin on a linker: ado-ado)
Sequence (Q8NI35 1425-1530): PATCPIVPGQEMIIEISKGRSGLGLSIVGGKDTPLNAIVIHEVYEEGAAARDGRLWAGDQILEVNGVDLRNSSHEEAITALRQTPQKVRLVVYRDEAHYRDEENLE

Row | pKd | Binder
10 | below the threshold | FLVTEFNVML [DFNB31, Q9P202]

target: FRMPD2_3, Q68DX3; experiment: holdup assay; parameters: key: below the threshold = too weak to quantify, mostly under pKd 3.1 to 4; conditions: plain residues with an end cap or a label only (N-terminal biotin on a linker: ado-ado)
Sequence (Q68DX3 1073-1166): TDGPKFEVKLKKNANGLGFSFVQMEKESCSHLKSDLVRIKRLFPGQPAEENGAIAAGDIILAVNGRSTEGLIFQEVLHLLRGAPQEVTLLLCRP

Row | pKd | Binder
11 | below the threshold | FLVTEFNVML [DFNB31, Q9P202]

target: IL16_3, Q14005; experiment: holdup assay; parameters: key: below the threshold = too weak to quantify, mostly under pKd 3.1 to 4; conditions: plain residues with an end cap or a label only (N-terminal biotin on a linker: ado-ado)
Sequence (Q14005 1107-1207): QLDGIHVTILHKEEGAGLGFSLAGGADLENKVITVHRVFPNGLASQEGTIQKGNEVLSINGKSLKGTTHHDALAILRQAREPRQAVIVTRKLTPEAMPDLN

Row | pKd | Binder
12 | below the threshold | FLVTEFNVML [DFNB31, Q9P202]

target: ARHGEF12, Q9NZN5-2; experiment: holdup assay; parameters: key: below the threshold = too weak to quantify, mostly under pKd 3.1 to 4; conditions: plain residues with an end cap or a label only (N-terminal biotin on a linker: ado-ado)
Sequence (Q9NZN5 other isoform, or with tags, fused parts or gaps): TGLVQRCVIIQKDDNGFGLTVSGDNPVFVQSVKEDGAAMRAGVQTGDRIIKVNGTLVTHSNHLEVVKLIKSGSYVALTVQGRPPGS

Row | pKd | Binder
13 | below the threshold | FLVTEFNVML [DFNB31, Q9P202]

target: MAGI3_2, Q5TCQ9; experiment: holdup assay; parameters: key: below the threshold = too weak to quantify, mostly under pKd 3.1 to 4; conditions: plain residues with an end cap or a label only (N-terminal biotin on a linker: ado-ado)
Sequence (Q5TCQ9 398-503): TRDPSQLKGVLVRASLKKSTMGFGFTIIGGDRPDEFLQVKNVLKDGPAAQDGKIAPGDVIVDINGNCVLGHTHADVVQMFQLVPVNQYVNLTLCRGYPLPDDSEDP

Row | pKd | Binder
14 | 3.66 | FLVTEFNVML [DFNB31, Q9P202]

target: Inadl_10, Q8NI35; experiment: holdup assay; parameters: key: below the threshold = too weak to quantify, mostly under pKd 3.1 to 4; conditions: plain residues with an end cap or a label only (N-terminal biotin on a linker: ado-ado)
Sequence (Q8NI35 1673-1763): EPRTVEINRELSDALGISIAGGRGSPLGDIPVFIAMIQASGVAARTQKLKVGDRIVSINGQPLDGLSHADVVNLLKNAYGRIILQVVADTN

Row | pKd | Binder
15 | below the threshold | FLVTEFNVML [DFNB31, Q9P202]

target: MAGI1_2, Q96QZ7; experiment: holdup assay; parameters: key: below the threshold = too weak to quantify, mostly under pKd 3.1 to 4; conditions: plain residues with an end cap or a label only (N-terminal biotin on a linker: ado-ado)
Sequence (Q96QZ7 456-580): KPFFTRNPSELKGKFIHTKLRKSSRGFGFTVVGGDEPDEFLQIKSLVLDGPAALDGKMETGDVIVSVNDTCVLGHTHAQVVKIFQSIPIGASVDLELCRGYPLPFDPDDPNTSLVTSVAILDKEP

Row | pKd | Binder
16 | below the threshold | FLVTEFNVML [DFNB31, Q9P202]

target: Inadl_5, Q8NI35; experiment: holdup assay; parameters: key: below the threshold = too weak to quantify, mostly under pKd 3.1 to 4; conditions: plain residues with an end cap or a label only (N-terminal biotin on a linker: ado-ado)
Sequence (Q8NI35 673-780): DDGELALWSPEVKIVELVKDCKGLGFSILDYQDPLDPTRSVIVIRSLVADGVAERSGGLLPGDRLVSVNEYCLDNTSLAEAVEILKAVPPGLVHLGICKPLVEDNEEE

Row | pKd | Binder
17 | below the threshold | FLVTEFNVML [DFNB31, Q9P202]

target: LNX1_3, Q8TBB1; experiment: holdup assay; parameters: key: below the threshold = too weak to quantify, mostly under pKd 3.1 to 4; conditions: plain residues with an end cap or a label only (N-terminal biotin on a linker: ado-ado)
Sequence (Q8TBB1 500-596): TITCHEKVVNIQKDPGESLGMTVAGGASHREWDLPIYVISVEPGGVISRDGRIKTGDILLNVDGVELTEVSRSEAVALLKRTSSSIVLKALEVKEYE

Row | pKd | Binder
18 | below the threshold | FLVTEFNVML [DFNB31, Q9P202]

target: Inadl_9, Q8NI35; experiment: holdup assay; parameters: key: below the threshold = too weak to quantify, mostly under pKd 3.1 to 4; conditions: plain residues with an end cap or a label only (N-terminal biotin on a linker: ado-ado)
Sequence (Q8NI35 1530-1615): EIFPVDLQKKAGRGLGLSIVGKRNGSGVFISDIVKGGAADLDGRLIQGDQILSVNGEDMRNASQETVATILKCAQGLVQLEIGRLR

Row | pKd | Binder
19 | below the threshold | FLVTEFNVML [DFNB31, Q9P202]

target: T7, GRIP1_7, Q9Y3R0; experiment: holdup assay; parameters: key: below the threshold = too weak to quantify, mostly under pKd 3.1 to 4; conditions: plain residues with an end cap or a label only (N-terminal biotin on a linker: ado-ado)

Row | pKd | Binder
20 | below the threshold | FLVTEFNVML [DFNB31, Q9P202]

target: T8, PCLO, Q9Y6V0; experiment: holdup assay; parameters: key: below the threshold = too weak to quantify, mostly under pKd 3.1 to 4; conditions: plain residues with an end cap or a label only (N-terminal biotin on a linker: ado-ado)

Row | pKd | Binder
21 | below the threshold | FLVTEFNVML [DFNB31, Q9P202]

target: T9, DFNB31_2, Q9P202; experiment: holdup assay; parameters: key: below the threshold = too weak to quantify, mostly under pKd 3.1 to 4; conditions: plain residues with an end cap or a label only (N-terminal biotin on a linker: ado-ado)

Row | pKd | Binder
22 | below the threshold | FLVTEFNVML [DFNB31, Q9P202]

target: TJP2_1, Q9UDY2; experiment: holdup assay; parameters: key: below the threshold = too weak to quantify, mostly under pKd 3.1 to 4; conditions: plain residues with an end cap or a label only (N-terminal biotin on a linker: ado-ado)
Sequence (Q9UDY2 24-128): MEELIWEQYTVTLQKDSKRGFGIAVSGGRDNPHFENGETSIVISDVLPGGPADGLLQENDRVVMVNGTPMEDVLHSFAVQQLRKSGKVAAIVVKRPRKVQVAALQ

Row | pKd | Binder
23 | below the threshold | FLVTEFNVML [DFNB31, Q9P202]

target: T10, APBA2_2, Q99767; experiment: holdup assay; parameters: key: below the threshold = too weak to quantify, mostly under pKd 3.1 to 4; conditions: plain residues with an end cap or a label only (N-terminal biotin on a linker: ado-ado)

Row | pKd | Binder
24 | below the threshold | FLVTEFNVML [DFNB31, Q9P202]

target: T11, MPDZ_10, O75970; experiment: holdup assay; parameters: key: below the threshold = too weak to quantify, mostly under pKd 3.1 to 4; conditions: plain residues with an end cap or a label only (N-terminal biotin on a linker: ado-ado)

Row | pKd | Binder
25 | below the threshold | FLVTEFNVML [DFNB31, Q9P202]

target: T12, RADIL, Q96JH8; experiment: holdup assay; parameters: key: below the threshold = too weak to quantify, mostly under pKd 3.1 to 4; conditions: plain residues with an end cap or a label only (N-terminal biotin on a linker: ado-ado)

Row | pKd | Binder
26 | 4.78 | FLVTEFNVML [DFNB31, Q9P202]
